T1: human NKG2D expressed on cells (human, UniProt P26718 1-216)
T1 construct: the cell type is named under assay; also called NKG2D on NK92 cells; HEK293T human NKG2D
T1 chain: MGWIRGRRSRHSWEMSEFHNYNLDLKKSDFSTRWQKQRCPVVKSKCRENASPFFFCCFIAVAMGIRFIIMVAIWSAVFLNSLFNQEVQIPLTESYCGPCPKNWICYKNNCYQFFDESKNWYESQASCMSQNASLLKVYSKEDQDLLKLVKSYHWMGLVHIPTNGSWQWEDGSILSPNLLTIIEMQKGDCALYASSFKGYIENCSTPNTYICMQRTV

T2: CEA expressed on LS180 tumor cells (human, UniProt P06731 35-685)
T2 construct: whole, on cells; also called carcinoembryonic antigen; CEACAM5
T2 sequence (looked up): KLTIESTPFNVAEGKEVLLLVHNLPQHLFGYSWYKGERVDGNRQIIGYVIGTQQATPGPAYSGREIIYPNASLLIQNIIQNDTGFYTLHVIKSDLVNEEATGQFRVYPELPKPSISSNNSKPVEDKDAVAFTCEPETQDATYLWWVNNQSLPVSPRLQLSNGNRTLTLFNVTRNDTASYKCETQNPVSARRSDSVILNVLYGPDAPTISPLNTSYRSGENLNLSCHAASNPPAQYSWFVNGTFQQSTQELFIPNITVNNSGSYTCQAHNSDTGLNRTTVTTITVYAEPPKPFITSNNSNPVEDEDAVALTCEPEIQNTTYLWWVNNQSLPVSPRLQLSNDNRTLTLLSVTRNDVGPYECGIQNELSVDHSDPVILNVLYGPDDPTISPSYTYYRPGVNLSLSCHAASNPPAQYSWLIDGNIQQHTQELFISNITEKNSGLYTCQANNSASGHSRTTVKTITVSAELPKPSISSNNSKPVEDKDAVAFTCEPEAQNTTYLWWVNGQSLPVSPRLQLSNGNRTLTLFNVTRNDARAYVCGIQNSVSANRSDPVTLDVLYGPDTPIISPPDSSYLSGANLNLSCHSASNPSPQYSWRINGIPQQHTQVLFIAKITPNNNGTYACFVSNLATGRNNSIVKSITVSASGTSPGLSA

T3: his avi huNKG2D ECD (human, biotinylated at the avi-tag (in the ELISA))
T3 construct: Human NKG2D ECD with N-terminal H6-avi tags, forms non-covalent dimers; also called recombinant human NKG2D
T3 chain: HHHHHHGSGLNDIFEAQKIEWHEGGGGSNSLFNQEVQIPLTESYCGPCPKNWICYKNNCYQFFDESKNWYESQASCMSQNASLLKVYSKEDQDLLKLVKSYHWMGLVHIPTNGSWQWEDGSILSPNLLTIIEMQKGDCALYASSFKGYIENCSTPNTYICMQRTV

T4: hu N(A2B2)A-avi-His (human)
T4 construct: Construct containing the A2 domain of human CEA, with avi and His tags; also called human CEA (A2 domain)
T4 chain: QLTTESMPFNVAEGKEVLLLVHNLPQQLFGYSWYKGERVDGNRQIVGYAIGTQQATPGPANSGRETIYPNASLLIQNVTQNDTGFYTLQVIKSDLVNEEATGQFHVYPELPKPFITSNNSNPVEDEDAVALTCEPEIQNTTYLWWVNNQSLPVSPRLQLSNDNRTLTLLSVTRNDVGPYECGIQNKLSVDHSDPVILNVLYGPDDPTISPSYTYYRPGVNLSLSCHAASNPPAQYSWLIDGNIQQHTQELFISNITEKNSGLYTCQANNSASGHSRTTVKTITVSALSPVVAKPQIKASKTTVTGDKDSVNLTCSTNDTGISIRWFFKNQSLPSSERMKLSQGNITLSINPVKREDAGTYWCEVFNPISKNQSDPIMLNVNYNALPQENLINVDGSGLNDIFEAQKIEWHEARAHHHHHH


What was measured:
[1] = molecular target: T1, human NKG2D expressed on cells; experiment: flow cytometry on NKG2D-positive NK92 cells, anti-human Fc secondary antibody
Protocol: (§1) Viability of NK92 cells or tumor cells (MKN-45, LS180) was checked and cells were re-suspended and adjusted to a density of 1 mio cells/ml. 100 μl per well of this cell suspension (containing 0.1 mio cells) were seeded into a 96 well round bottom plate. The plate was centrifuged for 4 min at 400×g and the supernatant was removed. Then 40 μl of the diluted antibodies or FACS buffer were added to the cells and incubated for 30 min at 4° C. After the incubation the cells were washed twice with 150 μl FACS buffer per well. […] The cells were incubated for an additional 30 min at 4° C. To remove unbound antibody, the cells were washed again twice with 150 μl per well FACS buffer. To fix the cells, 100 μl of FACS buffer containing 1% PFA were added to the wells. Before measuring, the cells were re-suspended in 150 μl FACS buffer. The fluorescence was measured using a BD flow cytometer.

[2] = molecular target: T2, CEA expressed on LS180 tumor cells; experiment: flow cytometry on CEA-positive LS180 cells, anti-human Fc secondary antibody
Protocol: as §1

[3] = molecular target: T1, human NKG2D expressed on cells; experiment: flow cytometry on NK cells (CD3- CD56+) within freshly isolated human PBMCs, anti-human Fc secondary antibody
Protocol: (§2) Viability of freshly isolated peripheral blood mononuclear cells (PBMCs) was checked and cells were adjusted to a density of 1 mio cells/ml in FACS buffer. 100 μl per well of the PBMCs (containing 0.1 mio cells) were seeded into a 96 well round bottom plate. The plate was centrifuged for 4 min at 400×g and the supernatant was removed. Then 0.5 μl FC BLOCK™ (BD Bioscience) in 20 μl total volume per well were added and the plate was incubated for 30 min at 4° C. Supernatant was removed and then 40 μl of the diluted anti-NKG2D antibodies were added to the cells and incubated for additional 30 min at 4° C. After the incubation, the cells were washed twice with 150 μl FACS buffer per well. […] The cells were incubated for an additional 30 min at 4° C. To remove unbound antibody, the cells were washed again twice with 150 μl per well FACS buffer. To fix the cells, 100 μl of FACS buffer containing 1% PFA were added to the wells. Before measuring the cells were re-suspended in 150 μl FACS buffer. The fluorescence was measured using a BD flow cytometer.

[4] = molecular target: T1, human NKG2D expressed on cells; experiment: flow cytometry on CD8 T cells (CD3+ CD8+) within freshly isolated human PBMCs, anti-human Fc secondary antibody
Protocol: as §2

[5] = molecular target: T1, human NKG2D expressed on cells; experiment: flow cytometry; NK92 cells
[6] = molecular target: T1, human NKG2D expressed on cells; experiment: flow cytometry on NK92 cells, PE anti-human Fc secondary antibody
his avi huNKG2D ECD = molecular target: T3, his avi huNKG2D ECD; experiment: SPR Biacore T200; antigen captured via anti-His, bispecific analyte
Protocol: (§3) On a CM5 chip, an anti-penta-His capture antibody (Qiagen Penta-His Antibody, BSA-free; #34660) was immobilized by standard amine coupling on flow cells 2 and 3 at approximately 12′000 RU. […] Regeneration at the level of the anti-H6 tag capture antibody was achieved by 2 pulses of 10 mM glycine/HCl pH 2.0 for 60 s. Data were double-referenced against the unimmobilized flow cell 1 and a zero concentration of the analyte. The sensorgrams of the analytes were fitted to a simple 1:1 Langmuir interaction model.

hu N(A2B2)A-avi-His = molecular target: T4, hu N(A2B2)A-avi-His; experiment: as above
Protocol: as §3

| EC50 (read off the curve) [1] [nM] | EC50 (read off the curve) [2] [nM] | EC50 (read off the curve) [3] [nM] | EC50 (read off the curve) [4] [nM] | EC50 [5] [nM] | EC50 (read off the curve) [6] [nM] | Kd (his avi huNKG2D ECD) [nM] | Kd (hu N(A2B2)A-avi-His) [nM] | Binder |
| --- | --- | --- | --- | --- | --- | --- | --- | --- |
| ~4 | ~10 | ~5 | ~5 |  |  |  |  | NKG2D×CEA bispecific antibody, anti-NKG2D 395 (C50S) / anti-CEA B9, M format (bispecific antibody, V domains shown, also called monovalent format M) VH 1: QEQLEQSGGGLVTPGGSLKLCCTASGFDFNTFWMTWVRQAPGKGLEWIGSIHGGSGSRDYASWVNGRFTLSRDIDQSTACLQVNSLTAADTAMYYCARPGYRSWSKTFDLWGQGTMVTVSS VL 1: DIQMTQSPSSLSASVGDRVTITCRASQDISGALNWYQQKPGKAPNLLIYAASSLQSGVPSRFSGSGSGTDYTLTISSLQPEDFATYYCQQANSFPLTFGGGTKVEIK VH 2: VQLVESGGGLVQPGRSLRLSCAASGFTVSSYWMHWVRQAPGKGLEWVGFIRNKANGGTTEYAASVKGRFTISRDDSKNTLYLQMNSLRAEDTAVYYCARDRGLRFYFDYWGQGTTVTVSS VL 2: QAVLTQPASLSASPGASASLTCTLRRGINVGAYSIYWYQQKPGSPPQYLLRYKSDSDKQQGSGVSSRFSASKDASANAGILLISGLQSEDEADYYCMIWHSGASAVFGGGTKLTVL |
|  |  |  |  | 7.38 | ~3 | 12.6 | 3.45 | NKG2D×CEA bispecific antibody in M format, P1AE4980 / huA5B7 (bispecific antibody, human IgG1, kappa, L234A L235A, also called NKG2D×CEA bispecific antibody (humanized anti-NKG2D antibody variant P1AE4980, M format)) heavy 1: not shown heavy 2: EVQLLESGGGLVQPGGSLRLSCAASGFTFTDYYMNWVRQAPGKGLEWLGFIGNKANAYTTEYSASVKGRFTISRDKSKNTLYLQMNSLRAEDTATYYCTRDRGLRFYFDYWGQGTTVTVSSASTKGPSVFPLAPSSKSTSGGTAALGCLVEDYFPEPVTVSWNSGALTSGVHTFPAVLQSSGLYSLSSVVTVPSSSLGTQTYICNVNHKPSNTKVDEKVEPKSCDKTHTCPPCPAPEAAGGPSVFLFPPKPKDTLMISRTPEVTCVVVDVSHEDPEVKFNWYVDGVEVHNAKTKPREEQYNSTYRVVSVLTVLHQDWLNGKEYKCKVSNKALGAPIEKTISKAKGQPREPQVCTLPPSRDELTKNQVSLSCAVKGFYPSDIAVEWESNGQPENNYKTTPPVLDSDGSFFLVSKLTVDKSRWQQGNVFSCSVMHEALHNHYTQKSLSLSP light 1: QEQLVQSGAEVKKPGESLKISCKGSGFDFNTFWMTWVRQMPGKGLEWMGSIHGGSGSRDYSPSFQGQVTISADIDQSTAYLQWSSLKASDTAMYYCARPGYRSWSKTFDLWGQGTTVTVSSASVAAPSVFIFPPSDEQLKSGTASVVCLLNNFYPREAKVQWKVDNALQSGNSQESVTEQDSKDSTYSLSSTLTLSKADYEKHKVYACEVTHQGLSSPVTKSFNRGEC light 2: EIVLTQSPATLSLSPGERATLSCRASSSVTYIHWYQQKPGQAPRSWIYATSNLASGIPARFSGSGSGTDFTLTISSLEPEDFAVYYCQHWSSKPPTFGQGTKLEIKRTVAAPSVFIFPPSDRKLKSGTASVVCLLNNFYPREAKVQWKVDNALQSGNSQESVTEQDSKDSTYSLSSTLTLSKADYEKHKVYACEVTHQGLSSPVTKSFNRGEC |

From patent US20240067734A1 (Hoffmann-La Roche, published 2024)
